From paper PMC12395300 (ACS Central Science, 2025)

Target: PD1 (as used in the ELISA) (Mus musculus, UniProt Q02242)
Sequence (Q02242 25-288): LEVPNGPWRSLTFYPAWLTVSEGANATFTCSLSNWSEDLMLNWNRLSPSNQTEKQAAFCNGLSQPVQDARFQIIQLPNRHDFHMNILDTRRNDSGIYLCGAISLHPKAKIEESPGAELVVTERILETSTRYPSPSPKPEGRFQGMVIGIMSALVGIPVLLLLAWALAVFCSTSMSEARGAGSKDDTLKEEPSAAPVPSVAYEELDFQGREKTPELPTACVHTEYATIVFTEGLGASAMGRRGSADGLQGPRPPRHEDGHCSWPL

binding result: binds
B1: anti-hPD1 (pembrolizumab) (antibody, V domains shown)
VH: QVQLVQSGVEVKKPGASVKVSCKASGYTFTNYYMYWVRQAPGQGLEWMGGINPSNGGTNFNEKFKNRVTLTTDSSTTTAYMELKSLQFDDTAVYYCARRDYRFDMGFDYWGQGTTVTVSS
VL: EIVLTQSPATLSLSPGERATLSCRASKGVSTSGYSYLHWYQQKPGQAPRLLIYLASYLESGVPARFSGSGSGTDFTLTISSLEPEDFAVYYCQHSRDLPLTFGGGTKVEIK
